From IntAct's records for PubMed 31515488

B1: Isoform 1 of Aminoacylase-1 (Homo sapiens), Q03154-1 (parent)
chain: MTSKGPEEEHPSVTLFRQYLRIRTVQPKPDYGAAVAFFEETARQLGLGCQKVEVAPGYVVTVLTWPGTNPTLSSILLNSHTDVVPVFKEHWSHDPFEAFKDSEGYIYARGAQDMKCVSIQYLEAVRRLKVEGHRFPRTIHMTFVPDEEVGGHQGMELFVQRPEFHALRAGFALDEGIANPTDAFTVFYSERSPWWVRVTSTGRPGHASRFMEDTAAEKLHKVVNSILAFREKEWQRLQSNPHLKEGSVTSVNLTKLEGGVAYNVIPATMSASFDFRVAPDVDFKAFEEQLQSWCQAAGEGVTLEFAQKWMHPQVTPTDDSNPWWAAFSRVCKDMNLTLEPEIMPAATDNRYIRAVGVPALGFSPMNRTPVLLHDHDERLHEAVFLRGVDIYTRLLPALASVPALPSDS
B2: Vesicle transport through interaction with t-SNAREs homolog 1B (Homo sapiens), Q9UEU0 (parent)
chain: MASSAASSEHFEKLHEIFRGLHEDLQGVPERLLGTAGTEEKKKLIRDFDEKQQEANETLAEMEEELRYAPLSFRNPMMSKLRNYRKDLAKLHREVRSTPLTATPGGRGDMKYGIYAVENEHMNRLQSQRAMLLQGTESLNRATQSIERSHRIATETDQIGSEIIEELGEQRDQLERTKSRLVNTSENLSKSRKILRSMSRKVTTNKLLLSIIILLELAILGGLVYYKFFRSH
partner: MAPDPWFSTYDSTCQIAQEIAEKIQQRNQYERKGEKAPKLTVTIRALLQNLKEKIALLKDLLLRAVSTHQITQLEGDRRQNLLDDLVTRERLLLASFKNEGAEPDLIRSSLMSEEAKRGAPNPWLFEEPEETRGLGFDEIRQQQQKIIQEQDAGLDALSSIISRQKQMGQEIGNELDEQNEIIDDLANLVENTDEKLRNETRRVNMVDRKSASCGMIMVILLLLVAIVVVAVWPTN
B3: Isoform 1 of Ras association domain-containing protein 2 (Homo sapiens), P50749-1 (parent)
chain: MDYSHQTSLVPCGQDKYISKNELLLHLKTYNLYYEGQNLQLRHREEEDEFIVEGLLNISWGLRRPIRLQMQDDNERIRPPPSSSSWHSGCNLGAQGTTLKPLTVPKVQISEVDAPPEGDQMPSSTDSRGLKPLQEDTPQLMRTRSDVGVRRRGNVRTPSDQRRIRRHRFSINGHFYNHKTSVFTPAYGSVTNVRINSTMTTPQVLKLLLNKFKIENSAEEFALYVVHTSGEKQKLKATDYPLIARILQGPCEQISKVFLMEKDQVEEVTYDVAQYIKFEMPVLKSFIQKLQEEEDREVKKLMRKYTVLRLMIRQRLEEIAETPATI
partner: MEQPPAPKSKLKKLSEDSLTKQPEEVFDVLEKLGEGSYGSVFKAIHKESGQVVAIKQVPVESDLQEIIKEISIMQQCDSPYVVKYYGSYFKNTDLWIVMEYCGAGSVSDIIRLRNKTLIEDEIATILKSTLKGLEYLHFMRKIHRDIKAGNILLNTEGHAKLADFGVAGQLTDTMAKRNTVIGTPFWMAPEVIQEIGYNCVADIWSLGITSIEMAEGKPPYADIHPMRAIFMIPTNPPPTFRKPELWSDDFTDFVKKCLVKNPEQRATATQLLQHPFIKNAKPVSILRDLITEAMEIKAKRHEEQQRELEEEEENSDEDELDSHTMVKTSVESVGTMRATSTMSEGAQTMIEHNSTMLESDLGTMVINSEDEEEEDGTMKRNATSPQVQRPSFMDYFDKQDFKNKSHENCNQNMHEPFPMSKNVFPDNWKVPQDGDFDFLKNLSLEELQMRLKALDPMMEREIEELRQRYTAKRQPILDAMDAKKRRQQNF
B4: Low-density lipoprotein receptor class A domain-containing protein 1 (Homo sapiens), Q5T700 (parent)
chain: MNKVFPQGENGYTAAESKAHPGGEAGGGHLCCSRRGACLSASLLLLLATVAALIALVTILGLPSCTPGAQACITLTNRTGFLCHDQRSCIPASGVCDGVRTCTHGEDEDESLCRDVPQSLPHFLVAHCGDPASWIYSDQKCDGTNNCGDCSDELSPVTVCPPCGPGWWRCPSTFFKYCDCIPRHLCRDHVQHCSDWSDEYACPGP
partner: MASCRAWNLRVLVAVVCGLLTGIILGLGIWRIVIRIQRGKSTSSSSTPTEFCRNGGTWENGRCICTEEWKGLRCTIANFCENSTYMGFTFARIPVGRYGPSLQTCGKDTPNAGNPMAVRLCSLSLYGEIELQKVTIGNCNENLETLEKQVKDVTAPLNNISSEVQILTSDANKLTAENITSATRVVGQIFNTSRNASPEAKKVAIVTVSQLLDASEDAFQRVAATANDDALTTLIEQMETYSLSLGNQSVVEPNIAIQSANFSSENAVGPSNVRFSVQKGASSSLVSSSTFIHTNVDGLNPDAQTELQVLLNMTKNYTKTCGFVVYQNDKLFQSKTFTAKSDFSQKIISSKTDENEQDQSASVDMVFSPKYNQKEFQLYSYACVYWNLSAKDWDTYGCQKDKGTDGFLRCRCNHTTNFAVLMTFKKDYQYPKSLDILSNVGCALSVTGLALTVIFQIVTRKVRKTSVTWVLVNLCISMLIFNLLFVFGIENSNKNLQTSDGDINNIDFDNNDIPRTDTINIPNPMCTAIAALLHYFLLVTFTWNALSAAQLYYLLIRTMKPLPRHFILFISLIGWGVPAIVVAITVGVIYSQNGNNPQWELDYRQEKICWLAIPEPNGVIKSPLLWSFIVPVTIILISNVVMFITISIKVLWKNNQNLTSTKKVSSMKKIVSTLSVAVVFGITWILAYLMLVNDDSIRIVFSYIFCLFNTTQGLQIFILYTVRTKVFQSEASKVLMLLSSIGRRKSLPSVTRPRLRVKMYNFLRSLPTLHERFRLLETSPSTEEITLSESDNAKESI

Variants of: B1
Details: with 8odp_human NUDT1, P36639

Row | effect of a mutation on the interaction | Variant
1 | with no effect | E381D

Variants of: B1
Details: with 8odp_human NUDT1, P36639
Remark: another data set of the same source

Row | effect of a mutation on the interaction | Variant
2 | with no effect | R197W

Variants of: B2
Details: with stx8_human STX8, Q9UNK0

Row | effect of a mutation on the interaction | Variant
3 | with no effect | R176H
4 | with no effect | R124Q

Variants of: B3
Details: with stk3_human STK3, Q13188

Row | effect of a mutation on the interaction | Variant
5 | with no effect | R144H

Variants of: B4
Details: with agrg7_human ADGRG7, Q96K78

Row | effect of a mutation on the interaction | Variant
6 | with no effect | E108K
